Laboratory results from paper PMC12865133, “Macrocyclic Molecular Glues for the 14‐3‐3/ChREBP Interaction: Affinity and Cooperativity in an Inverse Relationship” (Angewandte Chemie (International Ed. in English), 2025).
[ ]: non-standard residue; d: D form. pT = C[C@@H](OP(=O)(O)O)[C@H](N)C(=O)O; pS = N[C@@H](COP(=O)(O)O)C(=O)O

T1: 14-3-3γ (UniProt P61981 1-247)
T1 construct: 14-3-3 protein, gamma isoform; also called 14-3-3 protein
T1 sequence (looked up): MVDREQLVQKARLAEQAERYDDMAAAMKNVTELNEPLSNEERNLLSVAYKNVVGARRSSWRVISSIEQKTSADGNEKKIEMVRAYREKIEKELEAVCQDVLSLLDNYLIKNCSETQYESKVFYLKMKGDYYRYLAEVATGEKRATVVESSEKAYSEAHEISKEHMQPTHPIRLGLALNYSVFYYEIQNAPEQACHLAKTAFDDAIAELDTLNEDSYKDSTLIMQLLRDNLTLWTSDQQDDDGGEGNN

T2: full-length human 14-3-3β protein with a N-terminal His6 tag (human, UniProt P31946 1-246)
T2 construct: 14-3-3 protein beta/alpha, human, full length; Treated as a dimer in the thermodynamic model (Pp = 14-3-3 dimer); also called Pp (14-3-3 dimer); source: E. coli BL21(DE3), pPROEX HTb, purified (Ni-NTA, dialysis)
T2 sequence (looked up): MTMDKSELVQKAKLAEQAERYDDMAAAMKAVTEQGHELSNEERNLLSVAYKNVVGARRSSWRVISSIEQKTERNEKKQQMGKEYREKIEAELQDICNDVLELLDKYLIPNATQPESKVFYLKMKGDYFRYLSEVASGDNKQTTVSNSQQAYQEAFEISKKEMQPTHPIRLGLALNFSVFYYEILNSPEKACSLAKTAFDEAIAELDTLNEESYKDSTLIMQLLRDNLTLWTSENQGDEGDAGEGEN


Assays:
Conditions in all cases: both partners purified
14-3-3γ = target: T1, 14-3-3γ; assay: fluorescence polarisation; fluorescence anisotropy; 14-3-3γ titrated to FITC-labeled macrocycles F1-F4 and pepD (10 nM); mean ± SD, n = 3
[1] = target: T2, full-length human 14-3-3β protein with …; assay: fluorescence polarisation; selectivity assay by fluorescence anisotropy: acetylated 14-3-3 client peptides titrated (from 100 μM, 2-fold) to 10 nM FITC-labeled macrocycle F2 or F4 bound to 14-3-3β (7 μM for 2, 2 μM for 4); 10 mM HEPES pH 7.4, 150 mM NaCl, 0.1% Tween20, 0.1% BSA; room temperature
[2] = target: T2, full-length human 14-3-3β protein with …; assay: fluorescence polarisation; 2D fluorescence anisotropy titration, replicate 2: 14-3-3β titrated (from 250 µM) to FITC-labeled macrocycle or pepD with varying ChREBP peptide starting at 10 μM; KD I (binary affinity of the macrocycle for a site of the 14-3-3 dimer) fitted by the thermodynamic cooperativity model with KD II fixed at 1.5 µM; 10 mM HEPES pH 7.4, 150 mM NaCl, 0.1% Tween20, 0.1% BSA; room temperature
[3] = target: T2, full-length human 14-3-3β protein with …; assay: fluorescence polarisation; 2D fluorescence anisotropy titration, replicate 1: 14-3-3β titrated (from 250 µM) to FITC-labeled macrocycle or pepD with varying ChREBP peptide starting at 20 μM; KD I (binary affinity of the macrocycle for a site of the 14-3-3 dimer) fitted by the thermodynamic cooperativity model with KD II fixed at 1.5 µM; 10 mM HEPES pH 7.4, 150 mM NaCl, 0.1% Tween20, 0.1% BSA; room temperature

Binder	Kd (14-3-3γ)	binding result [1]	Kd [2]	Kd [3]
SFSXFKXK (not fully specified; fluorescein isothiocyanate (FITC) on the side chain of the first lysine; β-alanine after it; phosphoserine; triazole from azido phenylalanine (replacing Nph(+1)) cyclised to the backbone amide nitrogen between Lys(+5) and Nph(+4), linker x = 3; β-homoSer(+2); β-Ala(+3); 4-nitrophenylalanine Nph(+4)) [macrocycle F3]	0.23 µM	–	–	–
Ac-EGFPA[pT]V-OH (SMILES CC(=O)N[C@@H](CCC(=O)O)C(=O)NCC(=O)N[C@@H](Cc1ccccc1)C(=O)N1CCC[C@H]1C(=O)N[C@@H](C)C(=O)N[C@H](C(=O)N[C@H](C(=O)O)C(C)C)[C@@H](C)OP(=O)(O)O, ERα (estrogen receptor alpha), 14-3-3 client peptide; source: synthetic peptide, bought: GenScript Biotech Corp) [ERα client peptide]	–	binds	–	–
Ac-KRRRK[pS]CQA-NH2 (SMILES CC(=O)N[C@@H](CCCCN)C(=O)N[C@@H](CCCNC(=N)N)C(=O)N[C@@H](CCCNC(=N)N)C(=O)N[C@@H](CCCNC(=N)N)C(=O)N[C@@H](CCCCN)C(=O)N[C@@H](COP(=O)(O)O)C(=O)N[C@@H](CS)C(=O)N[C@@H](CCC(N)=O)C(=O)N[C@@H](C)C(N)=O, ERRγ (estrogen-related receptor gamma), 14-3-3 client peptide; source: synthetic peptide, bought: GenScript Biotech Corp) [ERRγ client peptide]	–	binds	–	–
SFSXFKXK (not fully specified; fluorescein isothiocyanate (FITC) on the side chain of the first lysine; β-alanine after it; phosphoserine; triazole from azido phenylalanine (replacing Nph(+1)) cyclised to the backbone amide nitrogen between Lys(+5) and Nph(+4), linker x = 2; β-homoSer(+2); β-Ala(+3); 4-nitrophenylalanine Nph(+4)) [macrocycle F2]	5.7 µM	–	–	–
SFSXFKXK (not fully specified; phosphoserine; Phe(+1) triazole cyclised to the backbone amide nitrogen of Lys(+5) through a linker x = 2 (from 3-butyn-1-ol); β-homoSer(+2); β-Ala(+3); Nph(+4); β-Ala and a lysine whose side chain carries fluorescein isothiocyanate (FITC) after Lys(+5)) [fluorescently labeled macrocycle F2]	–	–	11.9 µM	12.6 µM
SFSXFKXK (not fully specified; phosphoserine; Phe(+1) triazole cyclised to the backbone amide nitrogen of Lys(+5) through a linker x = 4 (from 5-hexyn-1-ol); β-homoSer(+2); β-Ala(+3); Nph(+4); β-Ala and a lysine whose side chain carries fluorescein isothiocyanate (FITC) after Lys(+5)) [fluorescently labeled macrocycle F4]	–	–	–	5 µM
SFSXFKXK (not fully specified; fluorescein isothiocyanate (FITC) on the side chain of the first lysine; β-alanine after it; phosphoserine; triazole from azido phenylalanine (replacing Nph(+1)) cyclised to the backbone amide nitrogen between Lys(+5) and Nph(+4), linker x = 4; β-homoSer(+2); β-Ala(+3); 4-nitrophenylalanine Nph(+4)) [macrocycle F4]	2.1 µM	–	–	–
SFSXFKXK (not fully specified; phosphoserine; Phe(+1) triazole cyclised to the backbone amide nitrogen of Lys(+5) through a linker x = 3 (from 4-pentyn-1-ol); β-homoSer(+2); β-Ala(+3); Nph(+4); β-Ala and a lysine whose side chain carries fluorescein isothiocyanate (FITC) after Lys(+5)) [fluorescently labeled macrocycle F3]	–	–	0.38 µM	0.63 µM
Ac-QGLLDALDLAS-NH2 (ExoS (exoenzyme S), 14-3-3 client peptide; source: synthetic peptide, bought: GenScript Biotech Corp) [ExoS client peptide]	–	binds	–	–
SFSXFKXK (not fully specified; phosphoserine; Phe(+1) triazole cyclised to the backbone amide nitrogen of Lys(+5) through a linker x = 1 (from propargyl alcohol); β-homoSer(+2); β-Ala(+3); Nph(+4); β-Ala and a lysine whose side chain carries fluorescein isothiocyanate (FITC) after Lys(+5)) [fluorescently labeled macrocycle F1]	–	–	73 µM	71 µM
